Measured values taken from FireProtDB (doi:10.1021/bi982427c).

Settings: Bos taurus; pH 5.3; 5 °C; GdnHCl; Fluorescence; Sodium acetate 0.02 M; reversible: yes; whole UniProt chain shown

B1: Acyl-CoA-binding protein wild type, P07107 (protein)
chain: MSQAEFDKAAEEVKHLKTKPADEEMLFIYSHYKQATVGDINTERPGMLDFKGKAKWDAWNELKGTSKEDAMKAYIDKVEELKKKYGI
unfolding free energy: 7.89 kcal/mol
